Assay [1] deals with GFP-14-3-3β and its binding proteins. Kind of assay: GFP-14-3-3β co-IP with LC-MS/MS label-free quantification, untreated versus PP1c-treated. As to conditions: pairwise comparison PP1 vs untreated. The arrangement: species or system human.
The test system of a further assay is GFP-14-3-3β. As to the kind of experiment: GFP-14-3-3β co-IP with LC-MS/MS, untreated GFP-14-3-3β versus GFP control (14-3-3 interactome). In kind it is binding, human. Particulars: pairwise comparison untreated vs GFP.
Setting [2] is: log2 difference, label-free quantification, 3 replicates each.

B1: SLC3A2 (protein, UniProt P08195 1-630, looked up)
Amino acid transporter heavy …: MELQPPEASIAVVSIPRQLPGSHSEAGVQGLSAGDDSELGSHCVAQTGLELLASGDPLPSASQNAEMIETGSDCVTQAGLQLLASSDPPALASKNAEVTGTMSQDTEVDMKEVELNELEPEKQPMNAASGAAMSLAGAEKNGLVKIKVAEDEAEAAAAAKFTGLSKEELLKVAGSPGWVRTRWALLLLFWLGWLGMLAGAVVIIVRAPRCRELPAQKWWHTGALYRIGDLQAFQGHGAGNLAGLKGRLDYLSSLKVKGLVLGPIHKNQKDDVAQTDLLQIDPNFGSKEDFDSLLQSAKKKSIRVILDLTPNYRGENSWFSTQVDTVATKVKDALEFWLQAGVDGFQVRDIENLKDASSFLAEWQNITKGFSEDRLLIAGTNSSDLQQILSLLESNKDLLLTSSYLSDSGSTGEHTKSLVTQYLNATGNRWCSWSLSQARLLTSFLPAQLLRLYQLMLFTLPGTPVFSYGDEIGLDAAALPGQPMEAPVMLWDESSFPDIPGAVSANMTVKGQSEDPGSLLSLFRRLSDQRSKERSLLHGDFHAFSAGPGLFSYIRHWDQNERFLVVLNFGDVGLSAGLQASDLPASASLPAKADLLLSTQPGREEGSPLELERLKLEPHEGLLLRFPYAA
In the case of B1, the “Difference (log2), PP1 vs untreated” value in assay [1] stood at 0.07419 log2. For the same molecule, the “Difference (log2), untreated vs GFP” value in the assay on GFP-14-3-3β was found to be 0.2155 log2.

B2: RRP12 (protein, UniProt Q5JTH9 1-1297, looked up)
RRP12-like protein: MGRSGKLPSGVSAKLKRWKKGHSSDSNPAICRHRQAARSRFFSRPSGRSDLTVDAVKLHNELQSGSLRLGKSEAPETPMEEEAELVLTEKSSGTFLSGLSDCTNVTFSKVQRFWESNSAAHKEICAVLAAVTEVIRSQGGKETETEYFAALMTTMEAVESPESLAAVAYLLNLVLKRVPSPVLIKKFSDTSKAFMDIMSAQASSGSTSVLRWVLSCLATLLRKQDLEAWGYPVTLQVYHGLLSFTVHPKPKIRKAAQHGVCSVLKGSEFMFEKAPAHHPAAISTAKFCIQEIEKSGGSKEATTTLHMLTLLKDLLPCFPEGLVKSCSETLLRVMTLSHVLVTACAMQAFHSLFHARPGLSTLSAELNAQIITALYDYVPSENDLQPLLAWLKVMEKAHINLVRLQWDLGLGHLPRFFGTAVTCLLSPHSQVLTAATQSLKEILKECVAPHMADIGSVTSSASGPAQSVAKMFRAVEEGLTYKFHAAWSSVLQLLCVFFEACGRQAHPVMRKCLQSLCDLRLSPHFPHTAALDQAVGAAVTSMGPEVVLQAVPLEIDGSEETLDFPRSWLLPVIRDHVQETRLGFFTTYFLPLANTLKSKAMDLAQAGSTVESKIYDTLQWQMWTLLPGFCTRPTDVAISFKGLARTLGMAISERPDLRVTVCQALRTLITKGCQAEADRAEVSRFAKNFLPILFNLYGQPVAAGDTPAPRRAVLETIRTYLTITDTQLVNSLLEKASEKVLDPASSDFTRLSVLDLVVALAPCADEAAISKLYSTIRPYLESKAHGVQKKAYRVLEEVCASPQGPGALFVQSHLEDLKKTLLDSLRSTSSPAKRPRLKCLLHIVRKLSAEHKEFITALIPEVILCTKEVSVGARKNAFALLVEMGHAFLRFGSNQEEALQCYLVLIYPGLVGAVTMVSCSILALTHLLFEFKGLMGTSTVEQLLENVCLLLASRTRDVVKSALGFIKVAVTVMDVAHLAKHVQLVMEAIGKLSDDMRRHFRMKLRNLFTKFIRKFGFELVKRLLPEEYHRVLVNIRKAEARAKRHRALSQAAVEEEEEEEEEEEPAQGKGDSIEEILADSEDEEDNEEEERSRGKEQRKLARQRSRAWLKEGGGDEPLNFLDPKVAQRVLATQPGPGRGRKKDHGFKVSADGRLIIREEADGNKMEEEEGAKGEDEEMADPMEDVIIRNKKHQKLKHQKEAEEEELEIPPQYQAGGSGIHRPVAKKAMPGAEYKAKKAKGDVKKKGRPDPYAYIPLNRSKLNRRKKMKLQGQFKGLVKAARRGSQVGHKNRRKDRRP
Turning to B2, the “Difference (log2), PP1 vs untreated” value in assay [1] came out at 0.1167 log2. The “Difference (log2), untreated vs GFP” value in the assay with GFP-14-3-3β stood at 0.888 log2.

B3: DDX17 (protein, UniProt Q92841 1-729, looked up)
Probable ATP-dependent RNA …: MPTGFVAPILCVLLPSPTREAATVASATGDSASERESAAPAAAPTAEAPPPSVVTRPEPQALPSPAIRAPLPDLYPFGTMRGGGFGDRDRDRDRGGFGARGGGGLPPKKFGNPGERLRKKKWDLSELPKFEKNFYVEHPEVARLTPYEVDELRRKKEITVRGGDVCPKPVFAFHHANFPQYVMDVLMDQHFTEPTPIQCQGFPLALSGRDMVGIAQTGSGKTLAYLLPAIVHINHQPYLERGDGPICLVLAPTRELAQQVQQVADDYGKCSRLKSTCIYGGAPKGPQIRDLERGVEICIATPGRLIDFLESGKTNLRRCTYLVLDEADRMLDMGFEPQIRKIVDQIRPDRQTLMWSATWPKEVRQLAEDFLRDYTQINVGNLELSANHNILQIVDVCMESEKDHKLIQLMEEIMAEKENKTIIFVETKRRCDDLTRRMRRDGWPAMCIHGDKSQPERDWVLNEFRSGKAPILIATDVASRGLDVEDVKFVINYDYPNSSEDYVHRIGRTARSTNKGTAYTFFTPGNLKQARELIKVLEEANQAINPKLMQLVDHRGGGGGGGGRSRYRTTSSANNPNLMYQDECDRRLRGVKDGGRRDSASYRDRSETDRAGYANGSGYGSPNSAFGAQAGQYTYGQGTYGAAAYGTSSYTAQEYGAGTYGASSTTSTGRSSQSSSQQFSGIGRSGQQPQPLMSQQFAQPPGATNMIGYMGQTAYQYPPPPPPPPPSRK
In the case of B3, the “Difference (log2), PP1 vs untreated” value in assay [1] is 0.07996 log2. Besides, the “Difference (log2), untreated vs GFP” value with GFP-14-3-3β was 0.6933 log2.

B4: HDLBP (protein, UniProt Q00341 2-1268, looked up)
Vigilin: SSVAVLTQESFAEHRSGLVPQQIKVATLNSEEESDPPTYKDAFPPLPEKAACLESAQEPAGAWGNKIRPIKASVITQVFHVPLEERKYKDMNQFGEGEQAKICLEIMQRTGAHLELSLAKDQGLSIMVSGKLDAVMKARKDIVARLQTQASATVAIPKEHHRFVIGKNGEKLQDLELKTATKIQIPRPDDPSNQIKITGTKEGIEKARHEVLLISAEQDKRAVERLEVEKAFHPFIAGPYNRLVGEIMQETGTRINIPPPSVNRTEIVFTGEKEQLAQAVARIKKIYEEKKKKTTTIAVEVKKSQHKYVIGPKGNSLQEILERTGVSVEIPPSDSISETVILRGEPEKLGQALTEVYAKANSFTVSSVAAPSWLHRFIIGKKGQNLAKITQQMPKVHIEFTEGEDKITLEGPTEDVNVAQEQIEGMVKDLINRMDYVEINIDHKFHRHLIGKSGANINRIKDQYKVSVRIPPDSEKSNLIRIEGDPQGVQQAKRELLELASRMENERTKDLIIEQRFHRTIIGQKGERIREIRDKFPEVIINFPDPAQKSDIVQLRGPKNEVEKCTKYMQKMVADLVENSYSISVPIFKQFHKNIIGKGGANIKKIREESNTKIDLPAENSNSETIIITGKRANCEAARSRILSIQKDLANIAEVEVSIPAKLHNSLIGTKGRLIRSIMEECGGVHIHFPVEGSGSDTVVIRGPSSDVEKAKKQLLHLAEEKQTKSFTVDIRAKPEYHKFLIGKGGGKIRKVRDSTGARVIFPAAEDKDQDLITIIGKEDAVREAQKELEALIQNLDNVVEDSMLVDPKHHRHFVIRRGQVLREIAEEYGGVMVSFPRSGTQSDKVTLKGAKDCVEAAKKRIQEIIEDLEAQVTLECAIPQKFHRSVMGPKGSRIQQITRDFSVQIKFPDREENAVHSTEPVVQENGDEAGEGREAKDCDPGSPRRCDIIIISGRKEKCEAAKEALEALVPVTIEVEVPFDLHRYVIGQKGSGIRKMMDEFEVNIHVPAPELQSDIIAITGLAANLDRAKAGLLERVKELQAEQEDRALRSFKLSVTVDPKYHPKIIGRKGAVITQIRLEHDVNIQFPDKDDGNQPQDQITITGYEKNTEAARDAILRIVGELEQMVSEDVPLDHRVHARIIGARGKAIRKIMDEFKVDIRFPQSGAPDPNCVTVTGLPENVEEAIDHILNLEEEYLADVVDSEALQVYMKPPAHEEAKAPSRGFVVRDAPWTASSSEKAPDMSSSEEFPSFGAQVAPKTLPWGPKR
Turning to B4, the “Difference (log2), PP1 vs untreated” value in assay [1] is listed as 0.06756 log2. Moreover, the “Difference (log2), untreated vs GFP” value in the assay with GFP-14-3-3β stood at 0.159 log2.

B5: SLC39A7 (protein, UniProt Q92504 1-469, looked up)
Zinc transporter SLC39A7: MARGLGAPHWVAVGLLTWATLGLLVAGLGGHDDLHDDLQEDFHGHSHRHSHEDFHHGHSHAHGHGHTHESIWHGHTHDHDHGHSHEDLHHGHSHGYSHESLYHRGHGHDHEHSHGGYGESGAPGIKQDLDAVTLWAYALGATVLISAAPFFVLFLIPVESNSPRHRSLLQILLSFASGGLLGDAFLHLIPHALEPHSHHTLEQPGHGHSHSGQGPILSVGLWVLSGIVAFLVVEKFVRHVKGGHGHSHGHGHAHSHTRGSHGHGRQERSTKEKQSSEEEEKETRGVQKRRGGSTVPKDGPVRPQNAEEEKRGLDLRVSGYLNLAADLAHNFTDGLAIGASFRGGRGLGILTTMTVLLHEVPHEVGDFAILVQSGCSKKQAMRLQLLTAVGALAGTACALLTEGGAVGSEIAGGAGPGWVLPFTAGGFIYVATVSVLPELLREASPLQSLLEVLGLLGGVIMMVLIAHLE
Consider B5, for which the “Difference (log2), PP1 vs untreated” value in assay [1] turned out to be 0.1123 log2. Besides, the “Difference (log2), untreated vs GFP” value in the assay with GFP-14-3-3β came out at 0.9479 log2.

B6: USP53 (protein, UniProt Q70EK8 1-1073, looked up)
Ubiquitin carboxyl-terminal …: MAWVKFLRKPGGNLGKVYQPGSMLSLAPTKGLLNEPGQNSCFLNSAVQVLWQLDIFRRSLRVLTGHVCQGDACIFCALKTIFAQFQHSREKALPSDNIRHALAESFKDEQRFQLGLMDDAAECFENMLERIHFHIVPSRDADMCTSKSCITHQKFAMTLYEQCVCRSCGASSDPLPFTEFVRYISTTALCNEVERMLERHERFKPEMFAELLQAANTTDDYRKCPSNCGQKIKIRRVLMNCPEIVTIGLVWDSEHSDLTEAVVRNLATHLYLPGLFYRVTDENAKNSELNLVGMICYTSQHYCAFAFHTKSSKWVFFDDANVKEIGTRWKDVVSKCIRCHFQPLLLFYANPDGTAVSTEDALRQVISWSHYKSVAENMGCEKPVIHKSDNLKENGFGDQAKQRENQKFPTDNISSSNRSHSHTGVGKGPAKLSHIDQREKIKDISRECALKAIEQKNLLSSQRKDLEKGQRKDLGRHRDLVDEDLSHFQSGSPPAPNGFKQHGNPHLYHSQGKGSYKHDRVVPQSRASAQIISSSKSQILAPGEKITGKVKSDNGTGYDTDSSQDSRDRGNSCDSSSKSRNRGWKPMRETLNVDSIFSESEKRQHSPRHKPNISNKPKSSKDPSFSNWPKENPKQKGLMTIYEDEMKQEIGSRSSLESNGKGAEKNKGLVEGKVHGDNWQMQRTESGYESSDHISNGSTNLDSPVIDGNGTVMDISGVKETVCFSDQITTSNLNKERGDCTSLQSQHHLEGFRKELRNLEAGYKSHEFHPESHLQIKNHLIKRSHVHEDNGKLFPSSSLQIPKDHNAREHIHQSDEQKLEKPNECKFSEWLNIENSERTGLPFHVDNSASGKRVNSNEPSSLWSSHLRTVGLKPETAPLIQQQNIMDQCYFENSLSTECIIRSASRSDGCQMPKLFCQNLPPPLPPKKYAITSVPQSEKSESTPDVKLTEVFKATSHLPKHSLSTASEPSLEVSTHMNDERHKETFQVRECFGNTPNCPSSSSTNDFQANSGAIDAFCQPELDSISTCPNETVSLTTYFSVDSCMTDTYRLKYHQRPKLSFPESSGFCNNSLS
On to B6, for which the “Difference (log2), PP1 vs untreated” value in assay [1] (setting [2]) came to 1.978. Moreover, the “Difference (log2), untreated vs GFP” value in the assay on GFP-14-3-3β (setting [2]) is on record as 5.4971.
